According to paper PMC4546058, “The Energetics of Streptococcal Enolase Octamer Formation: The Quantitative Contributions of the Last Eight Amino Acids at the Carboxy-Terminus” (PLoS ONE, 2015):

Target: the molecule itself
Test: AUC; sedimentation velocity, Beckman XL-I, 20°C, 30 000-37 000 RPM, TME-SO4 (50 mM Tris, 1 mM MgSO4, 0.1 mM EDTA, 44 mN H2SO4, pH 7.4); c(s) in Sedfit; octamer to 8 monomers

B1: Str enolase DB (Streptococcus pyogenes enolase, sequence of accession number NP_268959.1) (enzyme, UniProt P69949 1-435, looked up)
chain: MSIITDVYAREVLDSRGNPTLEVEVYTESGAFGRGMVPSGASTGEHEAVELRDGDKSRYLGLGTQKAVDNVNNIIAEAIIGYDVRDQQAIDRAMIALDGTPNKGKLGANAILGVSIAVARAAADYLEVPLYTYLGGFNTKVLPTPMMNIINGGSHSDAPIAFQEFMIMPVGAPTFKEGLRWGAEVFHALKKILKERGLVTAVGDEGGFAPKFEGTEDGVETILKAIEAAGYEAGENGIMIGFDCASSEFYDKERKVYDYTKFEGEGAAVRTSAEQVDYLEELVNKYPIITIEDGMDENDWDGWKVLTERLGKRVQLVGDDFFVTNTEYLARGIKENAANSILIKVNQIGTLTETFEAIEMAKEAGYTAVVSHRSGETEDSTIADIAVATNAGQIKTGSLSRTDRIAKYNQLLRIEDQLGEVAQYKGIKSFYNLKK
notes: PDB 3ZLH is the same protein with E77K; also called Streptococcal enolase; source: stored in saturated ammonium sulfate, dialyzed against TME-SO4
With B1 the “stoichiometry N” value was 8.
